Results on one molecule are retold here after article PMC6532428 (Circulation, 2019).

The assay has as its target His-p65 fusion protein (UniProt Q04206 1-551). Nature of the assay: pull-down.

Chain of His-p65 fusion protein (Q04206 whole entry, the tested form may be a part): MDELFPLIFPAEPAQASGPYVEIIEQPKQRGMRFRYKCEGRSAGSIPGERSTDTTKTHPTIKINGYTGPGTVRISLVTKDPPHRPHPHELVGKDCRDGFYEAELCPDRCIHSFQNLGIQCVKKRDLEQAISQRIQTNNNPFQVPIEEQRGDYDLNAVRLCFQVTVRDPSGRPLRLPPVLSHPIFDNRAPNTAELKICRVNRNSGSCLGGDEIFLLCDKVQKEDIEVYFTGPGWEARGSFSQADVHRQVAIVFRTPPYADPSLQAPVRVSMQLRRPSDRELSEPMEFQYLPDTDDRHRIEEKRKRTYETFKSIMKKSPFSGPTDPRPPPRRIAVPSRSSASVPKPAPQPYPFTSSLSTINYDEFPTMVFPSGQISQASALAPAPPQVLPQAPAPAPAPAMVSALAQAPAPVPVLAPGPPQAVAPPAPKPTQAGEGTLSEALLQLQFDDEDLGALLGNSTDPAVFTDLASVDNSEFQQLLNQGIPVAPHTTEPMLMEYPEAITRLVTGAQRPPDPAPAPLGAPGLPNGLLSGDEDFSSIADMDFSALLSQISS

B1: GST-RhoE recombinant protein (natural protein, UniProt P61587 1-244, looked up)
chain: MKERRASQKLSSKSIMDPNQNVKCKIVVVGDSQCGKTALLHVFAKDCFPENYVPTVFENYTASFEIDTQRIELSLWDTSGSPYYDNVRPLSYPDSDAVLICFDISRPETLDSVLKKWKGEIQEFCPNTKMLLVGCKSDLRTDVSTLVELSNHRQTPVSYDQGANMAKQIGAATYIECSALQSENSVRDIFHVATLACVNKTNKNVKRNKSQRATKRISHMPSRPELSAVATDLRKDKAKSCTVM
In the case of B1, the binding result was “binds”.
